Where two headings read alike, the source gives them in different places.
Assays:
Test in all cases: SPR
[1] = target: human ApoER2 ECD-BAS H96K/H99K (LA2 mutant) (human)
[2] = target: human ApoER2 ECD-BAS H96K/H99K (LA2 mutant) (human); remark: listed apart in the source
[3] = target: human ApoER2 ECD-BAS D68N (LA1 mutant) (human)
[4] = target: human ApoER2 ECD-BAS H96A/H99A (LA2 mutant) (human)
[5] = target: human ApoER2 ECD-BAS E107Q (LA2 mutant) (human)

Kd [1]: 45 nM
Kd [2]: 490 nM
Kd [3]: > 2800 nM
Kd [4]: 120 nM
Kd [5]: 38 nM
B1: mouse reelin R56 fragment (fifth and sixth reelin repeats), wild type, for SPR (domain or fragment)
chain: DGNNLNNPVLLLDTFDFGPREDNWFFYPGGNIGLYCPYSSKGAPEEDSAMVFVSNEVGEHSITTRDLSVNENTIIQFEINVGCSTDSSSADPVRLEFSRDFGATWHLLLPLCYHSSSLVSSLCSTEHHPSSTYYAGTTQGWRREVVHFGKLHLCGSVRFRWYQGFYPAGSQPVTWAIDNVYIGPQCEEMCYGHGSCINGTKCICDPGYSGPTCKISTKNPDFLKDDFEGQLESDRFLLMSGGKPSRKCGILSSGNNLFFNEDGLRMLVTRDLDLSHARFVQFFMRLGCGKGVPDPRSQPVLLQYSLNGGLSWSLLQEFLFSNSSNVGRYIALEMPLKARSGSTRLRWWQPSENGHFYSPWVIDQILIGGNISGNTVLEDDFSTLDSRKWLLHPGGTKMPVCGSTGDALVFIEKASTRYVVTTDIAVNEDSFLQIDFAASCSVTDSCYAIELEYSVDLGLSWHPLVRDCLPTNVECSRYHLQRILVSDTFNKWTRITLPLPSYTRSQATRFRWHQPAPFDKQQTWAIDNVYIGDGCLDMCSGHGRCVQGSCVCDEQWGGLYCDEPETSLPTQLKDNFNRAPSNQNWLTVSGGKLSTVCGAVASGLALHFSGGCSRLLVTVDLNLTNAEFIQFYFMYGCLITPSNRNQGVLLEYSVNGGITWNLLMEIFYDQYSKPGFVNILLPPDAKEIATRFRWWQPRHDGLDQNDWAIDNVLIS

Source: publication PMC5452030
